Test results taken from publication PMC12487888 (2025).

Target: EutQ (residues 1 to 229) (S. Typhimurium LT2, UniProt Q9ZFV5 1-229)
Assay: ITC

Sequence of EutQ (residues 1 to 229) (Q9ZFV5 whole entry, the tested form may be a part): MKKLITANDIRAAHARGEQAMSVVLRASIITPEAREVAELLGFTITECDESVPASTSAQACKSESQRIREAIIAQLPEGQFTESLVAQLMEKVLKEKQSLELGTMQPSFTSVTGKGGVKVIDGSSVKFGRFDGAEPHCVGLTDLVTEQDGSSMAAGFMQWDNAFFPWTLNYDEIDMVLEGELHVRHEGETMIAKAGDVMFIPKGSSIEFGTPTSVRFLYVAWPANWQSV

Work on MNQQDIEQVVKAVLLKMKDS [EutE^1–20 encapsulation peptide] yielded a Kd of 14.1 µM.
